The text below walks through data of publication PMC2696559.

The data set has as its target histone H2b (human, UniProt Q16778 1-126). As to the kind of experiment: EMSA. (In EMSA bound probe runs differently from free probe, usually more slowly.)

For GGAGGAGGAGGAGGAG (ssDNA) [16-mer oligonucleotide], the binding result is listed as “binds”.
